Biological target: T1, human CAPRIN-1 expressed on the surface of human cancer cells (human, UniProt Q14444 2-709)
T1 sequence: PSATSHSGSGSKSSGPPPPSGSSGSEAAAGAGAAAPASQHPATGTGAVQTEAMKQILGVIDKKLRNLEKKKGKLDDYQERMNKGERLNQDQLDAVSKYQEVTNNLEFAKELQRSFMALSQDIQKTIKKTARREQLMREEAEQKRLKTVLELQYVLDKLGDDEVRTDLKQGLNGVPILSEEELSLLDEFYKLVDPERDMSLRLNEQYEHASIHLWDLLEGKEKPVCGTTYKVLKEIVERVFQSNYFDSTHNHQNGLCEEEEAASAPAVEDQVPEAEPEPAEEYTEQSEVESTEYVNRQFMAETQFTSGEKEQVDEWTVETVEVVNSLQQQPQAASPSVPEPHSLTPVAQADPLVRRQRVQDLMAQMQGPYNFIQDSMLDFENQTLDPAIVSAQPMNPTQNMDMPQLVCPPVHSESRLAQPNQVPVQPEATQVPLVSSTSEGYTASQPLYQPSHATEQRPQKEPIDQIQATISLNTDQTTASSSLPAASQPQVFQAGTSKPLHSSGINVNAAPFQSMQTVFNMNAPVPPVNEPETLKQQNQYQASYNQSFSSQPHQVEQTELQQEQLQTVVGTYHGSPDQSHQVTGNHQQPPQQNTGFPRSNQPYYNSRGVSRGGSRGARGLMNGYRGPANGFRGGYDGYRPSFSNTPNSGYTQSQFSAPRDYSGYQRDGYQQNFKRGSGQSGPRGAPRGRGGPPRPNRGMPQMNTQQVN
Assay: cell-based or functional assay
Wherever ADCC cytotoxic activity (51Cr release) against A549 is given: test concentration or dose not given here.
Wherever ADCC cytotoxic activity (51Cr release) against Caki-1 is given: test concentration or dose not given here.
Wherever ADCC cytotoxic activity (51Cr release) against Caki-2 is given: test concentration or dose not given here.
Wherever ADCC cytotoxic activity (51Cr release) against DLD-1 is given: test concentration or dose not given here.
Wherever ADCC cytotoxic activity (51Cr release) against HCT-116 is given: test concentration or dose not given here.
Wherever ADCC cytotoxic activity (51Cr release) against MCF7 is given: test concentration or dose not given here.
Wherever ADCC cytotoxic activity (51Cr release) against MDA-MB-436 is given: test concentration or dose not given here.
Wherever ADCC cytotoxic activity (51Cr release) against MIAPaCa-2 is given: test concentration or dose not given here.
Wherever ADCC cytotoxic activity (51Cr release) against Panc-1 is given: test concentration or dose not given here.
Wherever ADCC cytotoxic activity (51Cr release) against QG56 is given: test concentration or dose not given here.

Row | Binder | ADCC cytotoxic activity (51Cr release) against A549 [%] | ADCC cytotoxic activity (51Cr release) against Caki-1 [%] | ADCC cytotoxic activity (51Cr release) against Caki-2 [%] | ADCC cytotoxic activity (51Cr release) against DLD-1 [%] | ADCC cytotoxic activity (51Cr release) against HCT-116 [%] | ADCC cytotoxic activity (51Cr release) against MCF7 [%] | ADCC cytotoxic activity (51Cr release) against MDA-MB-436 [%] | ADCC cytotoxic activity (51Cr release) against MIAPaCa-2 [%] | ADCC cytotoxic activity (51Cr release) against Panc-1 [%] | ADCC cytotoxic activity (51Cr release) against QG56 [%] | ADCC cytotoxic activity (51Cr release) against all other cancer cell lines listed [%]
1 | human-chicken chimeric monoclonal antibody #4 (antibody, V domains shown) VH: AVTLDESGGGLQTPGGAVSLVCKGSGFTFSSYGMGWVRQAPGKGLEYVAAIRKDGSTNYGPAVKGRATISRDNGQSTVRLQLSNLRAEDTATYYCAKRSHTGVNAAKIDAWGRGTEVIVS VL: ALTQPASVSANPGETVKITCSGASHNYGWFQQKSPGSAPVTVIYSNDKRPSDIPSRFSGSKSGSTATLTITGVQADDEAVYFCGGYNIYGPTFGAGTTLTV | ≥ 12 | ≥ 14 | ≥ 34 | ≥ 15 | ≥ 19 | ≥ 30 | ≥ 18 | ≥ 28 | ≥ 18 | ≥ 10 | ≥ 10
2 | human-mouse chimeric monoclonal antibody #2 (antibody, human IgG1, kappa, V domains shown) VH: GGGLVKPGGSLKLSCAASGFTFSSYGMSWVRQTPEKRLEWVATISSGGSYTYYPDSVKGRFTISRDNAKNTLYLQMSSLRSEDTAMYYCASLASYYFDYWGQGTTLTVSS VL: GARCDVQMIQSPSSLSASLGDIVTMTCQASQGTSINLNWFQQKPGKAPKLLIYGASSLEDGVPSRFSGSCFGTDFTLTISSLEDEDMATYFCLQHSYLPPLTFGAGTKLELKR |  |  | ≥ 18 |  | ≥ 18 | ≥ 32 |  | ≥ 32 |  | ≥ 10 | ≥ 10
3 | human-mouse chimeric monoclonal antibody #3 (antibody, human IgG1, kappa, V domains shown) VH: GGGLVKPGGSLKLSCAASGFTFSSYGMSWVRQTPEKRLEWVATISSGGSYTYYPDSVKGRFTISRDNAKNTLYLQMSSLRSEDTAMYYCASLASYYFDYWGQGTTLTVSS VL: not shown |  |  | ≥ 18 |  | ≥ 18 | ≥ 32 |  | ≥ 32 |  | ≥ 10 | ≥ 10
4 | human-mouse chimeric comparative monoclonal antibody 1 (antibody, human IgG1, kappa) heavy: not shown light: DIQMTQSPASLSASVGETVTITCRASGNIHNYLAWYQQKQGKSPQLLVYNAKTLADGVPSRFSGSGSGTQYSLKINSLQPEDFGSYYCQHFWSTLTFGAGTKLELKRADAAPTVSNPYDTVAAPSVFIFPPSDEQLKSGTASVVCLLNNFYPREAKVQWKVDNALQSGNSQESVTEQDSKDSTYSLSSTLTLSKADYEKHKVYACEVTHQGLSSPVTKSFNRGEC |  |  | < 8 |  | < 3 | < 5 |  | 7 |  | < 5 | < 4
5 | human-mouse chimeric monoclonal antibody #1 (antibody, V domains shown) VH: GPGLVQPSQSLSITCTVSGFSLTTYDLHWVRQSPGKGLEWLGVIWSGGSTDYNAAFISRLSISKDNSKSQVFFKMNSLQANDTAIYYCARNYGYSAWFAYWGQGTLVTVSA VL: DVLMTQTPLSLPVSLGDQASISCRSSQSIVHSNGNTYLEWYLQKPGQSPKLLIYKVSNRFSGVPDRFSGSGSGTDFTLKISRVEAEDLGVYYCFQGSHVPLTFGAGTKLELKR |  |  | ≥ 34 |  | ≥ 19 | ≥ 30 |  | ≥ 28 |  | ≥ 10 | ≥ 10

From patent US20140186359A1 (TORAY INDUSTRIES, published 2014)
